# Results as given in publication PMC6096048, “The Cytochrome bd Complex Is Essential for Chromate and Sulfide Resistance and Is Regulated by a GbsR-Type Regulator, CydE, in Alishewanella Sp. WH16-1”.
# T1: CydE (GbsR-type regulator) (Alishewanella sp. WH16-1, UniProt A0ABQ3KUT0 1-187)
# T1 sequence: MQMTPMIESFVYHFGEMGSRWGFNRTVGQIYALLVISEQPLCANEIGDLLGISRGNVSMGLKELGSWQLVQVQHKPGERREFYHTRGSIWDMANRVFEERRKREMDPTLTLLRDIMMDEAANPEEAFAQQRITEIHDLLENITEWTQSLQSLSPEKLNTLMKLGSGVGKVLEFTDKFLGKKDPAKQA
# B1: CydE binding site 2 (dsDNA)
# DNA 1: GGGATGCGCATATGCAAAT
# DNA 2: ATTTGCATATGCGCATCCC
# B2: CydE binding site 1 (dsDNA)
# DNA 1: TATTTCAGAAATTTCTGAAAGTTCA
# DNA 2: TGAACTTTCAGAAATTTCTGAAATA
# Target: T1, CydE (GbsR-type regulator)
# Assay: EMSA; ethidium bromide stain; EMSA: 20 uL with 2 uL 10x binding buffer (listed as 10 mM Tris pH 7.5, 10 mM EDTA, 1 mM KCl, 1 mM DTT, 50% glycerol, 0.1 mg/mL BSA), 37 C 30 min, 8% native PAGE in 0.5x TGE pH 8.0; footprinting: same mix, DNase I 10 min at room temperature
# Conditions: protein: recombinant; tags: His6 (pET28a); chain copies: 2; (synthesized)
row,Binder,binding result
1,B1,binds
2,B2,binds
